Target: glycogen-synthase kinase 3β (GSK3β) (UniProt P49841 1-420)
Assay: SPR

B1: Nav1.6 C-terminal tail (domain or fragment)
chain: LENFSVATEESADPLSEDDFETFYEIWEKFDPDATQFIEYCKLADFADALEHPLRVPKPNTIELIAMDLPMVSGDRIHCLDILFAFTKRVLGDSGELDILRQQMEERFVASNPSKVSYEPITTTLRRKQEEVSAVVLQRAYRGHLARRGFICKKTTSNKLENGGTHREKKESTPSTASLPSYDSVTKPEKEKQQRAEEGRRERAKRQKEVRESKC
Kd: 165 nM

Reference: paper PMC6150488 (Cell reports, 2018)
